Results on 1 protein are retold here after patent US5221606A, “Reagent and kit for enzyme assay comprising a substrate consonant with given enzyme to be assayed” (King's College London, priority 1987, dated 1993).

Substrate in this data set: CCC(=O)Oc1c(OC)cc(C=C2SC(=S)N(CC(=O)O)C2=O)cc1OC
The experiment in a line: assay of arylesterase in serum. The class given is biochemical. Particulars: other: borate buffer pH 8, 37.0 °C. On the procedure:
The serum samples were diluted by a factor of 10 prior to the assay. The substrate solution and the diluted sera were then preincubated at 37° C. in a water bath. Aliquots (0.75 ml) of the substrate solution were then pipetted into small plastic tubes (2 ml capacity), and 0.05 ml samples of the sera were added to each of the substrate aliquots and shaken vigorously to ensure adequate mixing. A blank was run by substituting water (0.05 ml) for the serum. The reaction was stopped after 10 min by the addition of the stopping buffer (0.25 ml) [prepared by dissolving DABCO (22.4 g) in water (200 ml) and adjusting the pH to 10 by the addition of a little conc. hydrochloric acid. The resulting mixture was then made up to 1000 ml with acetone]. The absorption (A) was then measured at 529 nm and the enzyme activity calculated on the basis of an εmax =47,500. [formula] where t=time of incubation in hours

B1: arylesterase (Homo sapiens) (protein)
chain: MAKLIALTLLGMGLALFRNHQSSYQTRLNALREVQPVELPNCNLVKGIETGSEDLEILPNGLAFISSGLKYPGIKSFNPNSPGKILLMDLNEEDPTVLELGITGSKFDVSSFNPHGISTFTDEDNAMYLLVVNHPDAKSTVELFKFQEEEKSLLHLKTIRHKLLPNLNDIVAVGPEHFYGTNDHYFLDPYLQSWEMYLGLAWSYVVYYSPSEVRVVAEGFDFANGINISPDGKYVYIAELLAHKIHVYEKHANWTLTPLKSLDFNTLVDNISVDPETGDLWVGCHPNGMKIFFYDSENPPASEVLRIQNILTEEPKVTQVYAENGTVLQGSTVASVYKGKLLIGTVFHKALYCEL
notes: The serum samples were diluted by a factor of 10 prior to the assay; from tissue; host or cells: serum
On to B1, for which the Km worked out at 25 µM.

The term Km denotes the substrate concentration at which the rate is half of its maximum.
